Measurements reported in patent US12545899B2, “Luciferase enzymes for use with thermostable luciferins in bioluminescent assays” (Promega Corporation, priority 2018, dated 2026).

Key:
Format in all cases: biochemical
[1] = Luminescence at 1 mM D/L-luciferin (Table 11); conditions: 1 mM substrate, 1 mM ATP
From the text: (§1) Tables 10 and 11 include representative results of kinetic analysis of the thermostable variants with D/L luciferin, CS0333, and CS0280. […] MK0135 and MK0137 have amino acid substitutions that improve thermostability relative to MK0133 and MK0134, respectively, while retaining activity on the luciferin analogs CS0333 and CS0280.

[2] = Luminescence at 1 mM CS0333 (Table 11); conditions: 1 mM substrate, 1 mM ATP
From the text: as §1

[3] = Luminescence at 1 mM CS0280 (Table 11); conditions: 1 mM substrate, 1 mM ATP
From the text: as §1

[4] = Kinetic analysis of thermostable variants with D/L-luciferin (Tables 13, 14); conditions: 2 mM ATP
From the text: (§2) Tables 13 and 14 include representative results of kinetic analysis of the thermostable variants with D/L luciferin, CS0333, and CS0280. The panel of enzyme variants highlight amino acid substitutions that further improve upon MK0137 in maximum luminescence (Vmax) or Km in different buffers with the different substrates tested (D/L-luciferin, CS0333, and CS0280). In particular, enzyme variants MK0151 and MK153 show improvements relative to MK0137 across multiple buffers with multiple substrates.

[5] = Kinetic analysis of thermostable variants with CS0333 (Tables 13, 14); conditions: 2 mM ATP
From the text: as §2

[6] = Kinetic analysis of thermostable variants with CS0280 (Tables 13, 14); conditions: 2 mM ATP
From the text: as §2

Row | Molecule | Vmax (RLU) D/L-luciferin BrightGlo Buffer [1] | Vmax (RLU) CS0333 BrightGlo Buffer [2] | Vmax (RLU) CS0333 Detection Reagent Buffer [2] | Vmax (RLU) CS0280 BrightGlo Buffer [3] | Vmax (RLU) CS0280 Detection Reagent Buffer [3] | Km ([4]; BrightGlo Buffer) [µM] | Vmax (RLU) ([4]; BrightGlo Buffer) | Km ([4]; Detection Reagent Buffer) [µM] | Vmax (RLU) ([4]; Detection Reagent Buffer) | Km ([5]; BrightGlo Buffer) [µM] | Vmax (RLU) ([5]; BrightGlo Buffer) | Km ([5]; Detection Reagent Buffer) [µM] | Vmax (RLU) ([5]; Detection Reagent Buffer) | Km ([6]; BrightGlo Buffer) [µM] | Vmax (RLU) ([6]; BrightGlo Buffer) | Km ([6]; Detection Reagent Buffer) [µM] | Vmax (RLU) ([6]; Detection Reagent Buffer) | Vmax (RLU) D/L-luciferin Detection Reagent Buffer [1]
1 | MK0154: SEQ ID NO: 119; H244W+S193A+N228D+L305F+S306P+I109V+C38R+F55I+Y108F+A316W+Y339M+T342S+V348I+C257R+T284A+T289S+S313T+K353R+D435G+L437R+W510R (protein) MADKNILYGPEPFYPLEDGTAGEQMFDALSRYAAIPGRIALTNAHTKENVLYEEILKLSCRLAESFKKYGLKQNDTIAVCSENSLQFFLPVIASLYLGIIVAPVNDKFVERELIHSLGIVKPRIVFCSKNTFQKVLNVKSKLKSIETIIILDLNEDLGGYQCLNNFISQNSDSNLDVKKFKPYSFNRDDQVAAIMFSSGTTGLPKGVMLTHKNIVARFSIAKDPTFGDAINPTSAILTVIPFHWGFGMMTTLGYFTCGFRVVLMHTFEEKLFLQSLQDYKVESALLVPSLMAFLAKSALVEKYDFPHLKEIATGGWPLSKEIGEMVKKRFKLNFVRQGMGLSETTSAILITPKGDAKPGSTGKIVPLHAVKVVDPTTGKILGPNEPGELYFKGPMIMKGYYNNEEATKAIIDNDGWLRSGDIAYYDNDGHFYIVDRLKSLIKYKGYQVAPAEIEGILLQHPYIVDAGVTGIPDEAAGELPAAGVVVQTGKYLNEQIVQDYVASQVSTAKRLRGGVKFLDEIPKGSTGKIDRKVLRQMLEKHTNGHHHHHHHH | 2,583,340 RLU | 2,374,950 RLU | 854,223 RLU | 809,566 RLU | 22,493 RLU | 0.108 | 2,997,269 RLU | 0.356 | 342,134 RLU | 10.6 | 1,706,369 RLU | 230 | 409,320 RLU | 41.7 | 449,576 RLU | 954 | 24,533 RLU | –
2 | MK0155: SEQ ID NO: 120; H244W+S193A+N228D+L305F+S306P+I109V+C38R+F55I+Y108F+A316W+Y339M+T342S+V348I+T284A+S313T+K353R+L437R+W510R (protein) MADKNILYGPEPFYPLEDGTAGEQMFDALSRYAAIPGRIALTNAHTKENVLYEEILKLSCRLAESFKKYGLKQNDTIAVCSENSLQFFLPVIASLYLGIIVAPVNDKFVERELIHSLGIVKPRIVFCSKNTFQKVLNVKSKLKSIETIIILDLNEDLGGYQCLNNFISQNSDSNLDVKKFKPYSFNRDDQVAAIMFSSGTTGLPKGVMLTHKNIVARFSIAKDPTFGDAINPTSAILTVIPFHWGFGMMTTLGYFTCGFRVVLMHTFEEKLFLQSLQDYKVESALLVPTLMAFLAKSALVEKYDFPHLKEIATGGWPLSKEIGEMVKKRFKLNFVRQGMGLSETTSAILITPRGDAKPGSTGKIVPLHAVKVVDPTTGKILGPNEPGELYFKGPMIMKGYYNNEEATKAIIDNDGWLRSGDIAYYDNDGHFYIVDRRKSLIKYKGYQVAPAEIEGILLQHPYIVDAGVTGIPDEAAGELPAAGVVVQTGKYLNEQIVQDYVASQVSTAKRLRGGVKFLDEIPKGSTGKIDRKVLRQMLEKHTNGHHHHHHHH | 851,342 RLU | 3,609,390 RLU | 1,400,780 RLU | 4,644,970 RLU | 62,606 RLU | 0.0804 | 550,291 RLU | 0.527 | 22,671 RLU | 7.88 | 1,487,388 RLU | 126 | 301,956 RLU | 8.07 | 570,972 RLU | 798 | 32,480 RLU | 74,704 RLU
3 | MK0156: SEQ ID NO: 121; H244W+S193A+N228D+L305F+S306P+I109V+C38R+F55I+Y108F+A316W+Y339M+T342S+V348I+C257R+T289S+S313T+K353R (protein) MADKNILYGPEPFYPLEDGTAGEQMFDALSRYAAIPGRIALTNAHTKENVLYEEILKLSCRLAESFKKYGLKQNDTIAVCSENSLQFFLPVIASLYLGIIVAPVNDKFVERELIHSLGIVKPRIVFCSKNTFQKVLNVKSKLKSIETIIILDLNEDLGGYQCLNNFISQNSDSNLDVKKFKPYSFNRDDQVAAIMFSSGTTGLPKGVMLTHKNIVARFSIAKDPTFGDAINPTSAILTVIPFHWGFGMMTTLGYFTCGFRVVLMHTFEEKLFLQSLQDYKVESALLVPSLMAFLAKSALVEKYDFPHLKEIASGGWPLSKEIGEMVKKRFKLNFVRQGMGLSETTSAILITPRGDAKPGSTGKIVPLHAVKVVDPTTGKILGPNEPGELYFKGPMIMKGYYNNEEATKAIIDNDGWLRSGDIAYYDNDGHFYIVGRRKSLIKYKGYQVAPAEIEGILLQHPYIVDAGVTGIPDEAAGELPAAGVVVQTGKYLNEQIVQDYVASQVSTAKWLRGGVKFLDEIPKGSTGKIDRKVLRQMLEKHTNGHHHHHHHH | 796,344 RLU | 828,634 RLU | 377,642 RLU | 753,523 RLU | 16,392 RLU | 0.0613 | 1,244,361 RLU | 0.373 | 144,242 RLU | 7.16 | 793,473 RLU | 116 | 174,991 RLU | 9.12 | 378,264 RLU | 1210 | 21,620 RLU | 173,238 RLU
4 | MK0157: SEQ ID NO: 122; H244W+S193A+N228D+L305F+S306P+I109V+C38R+F55I+Y108F+A316W+Y339M+T342S+V348I+T284A+T289S+K353R+D435G+L437R (protein) MADKNILYGPEPFYPLEDGTAGEQMFDALSRYAAIPGRIALTNAHTKENVLYEEILKLSCRLAESFKKYGLKQNDTIAVCSENSLQFFLPVIASLYLGIIVAPVNDKFVERELIHSLGIVKPRIVFCSKNTFQKVLNVKSKLKSIETIIILDLNEDLGGYQCLNNFISQNSDSNLDVKKFKPYSFNRDDQVAAIMFSSGTTGLPKGVMLTHKNIVARFSIAKDPTFGDAINPTSAILTVIPFHWGFGMMTTLGYFTRGFRVVLMHTFEEKLFLQSLQDYKVESALLVPTLMAFLAKSALVEKYDFPHLKEIATGGWPLSKEIGEMVKKRFKLNFVRQGMGLSETTSAILITPRGDAKPGSTGKIVPLHAVKVVDPTTGKILGPNEPGELYFKGPMIMKGYYNNEEATKAIIDNDGWLRSGDIAYYDNDGHFYIVGRLKSLIKYKGYQVAPAEIEGILLQHPYIVDAGVTGIPDEAAGELPAAGVVVQTGKYLNEQIVQDYVASQVSTAKWLRGGVKFLDEIPKGSTGKIDRKVLRQMLEKHTNGHHHHHHHH | 573,187 RLU | 4,827,260 RLU | 3,810,820 RLU | 3,598,730 RLU | 159,336 RLU | 0.1 | 590,903 RLU | 0.27 | 32,485 RLU | 4.51 | 2,835,770 RLU | 18.7 | 515,775 RLU | 4.49 | 951,258 RLU | 631 | 87,011 RLU | 75,012 RLU
5 | MK0158: SEQ ID NO: 123; H244W+S193A+N228D+L305F+S306P+I109V+C38R+F55I+Y108F+A316W+Y339M+T342S+V348I+C257R+T284A+S313T+K353R+D435G (protein) MADKNILYGPEPFYPLEDGTAGEQMFDALSRYAAIPGRIALTNAHTKENVLYEEILKLSCRLAESFKKYGLKQNDTIAVCSENSLQFFLPVIASLYLGIIVAPVNDKFVERELIHSLGIVKPRIVFCSKNTFQKVLNVKSKLKSIETIIILDLNEDLGGYQCLNNFISQNSDSNLDVKKFKPYSFNRDDQVAAIMFSSGTTGLPKGVMLTHKNIVARFSIAKDPTFGDAINPTSAILTVIPFHWGFGMMTTLGYFTRGFRVVLMHTFEEKLFLQSLQDYKVESTLLVPSLMAFLAKSALVEKYDFPHLKEIATGGWPLSKEIGEMVKKRFKLNFVRQGMGLSETTSAILITPKGDAKPGSTGKIVPLHAVKVVDPTTGKILGPNEPGELYFKGPMIMKGYYNNEEATKAIIDNDGWLRSGDIAYYDNDGHFYIVGRRKSLIKYKGYQVAPAEIEGILLQHPYIVDAGVTGIPDEAAGELPAAGVVVQTGKYLNEQIVQDYVASQVSTAKRLRGGVKFLDEIPKGSTGKIDRKVLRQMLEKHTNGHHHHHHHH | 3,261,120 RLU | 4,043,790 RLU | 1,508,370 RLU | 1,523,240 RLU | 41,712 RLU | 0.109 | 2,509,334 RLU | 0.451 | 365,701 RLU | 14.6 | 1,546,728 RLU | 20.8 | 524,381 RLU | 2.94 | 426,927 RLU | 568 | 39,068 RLU | 1,086,510 RLU
